This experiment addresses human lactoferrin from milk (human). In words: SPR; lactoferrin immobilised by amine coupling on Sensor Chip CM3 (around 1000 RU); EndoE variants injected at typically 31-500 nM, 15 µl/min, 25°C, 10 mM Hepes pH 7.5, 150 mM NaCl, 0.005% surfactant P20; BIAcore 2000; 1:1 Langmuir fit, KD from mean values of the rate constants. In general terms: Surface plasmon resonance follows binding to a sensor surface in real time, without labels.

Usually Kd stands for the free concentration of one partner at which half of the binding sites on the other are occupied at equilibrium, for simple one-to-one binding. For “EndoE(E186Q) (from UniProt Q6U890 1-837) (enzyme)”, the Kd was 44 nM.
In turn, “EndoE(E662Q) (from UniProt Q6U890 1-837) (enzyme)” returned a Kd of 3.7 nM.

The values are drawn from article PMC3946673.
